Results as given in patent US11981731B2, “Targeting cytotoxic cells with chimeric receptors for adoptive immunotherapy” (Novartis AG, priority 2014, dated 2024).

B1: DAP12: T cells expressing DAP12 and dsRed; DAP12 adaptor molecule, SEQ ID NO: 368 (protein)
chain: MGGLEPCSRFLLLPLLLAVSGLRPVQVQAQSDCSCSTVSPGVLAGIVMGDLVLTVLIALAVYFLGRLVPRGRGAAEAATRKQRITETESPYQELQGQRSDVYSDLNTQRPYYK
B2: KIR2DL3: wild-type KIR2DL3 inhibitory receptor co-expressed in T cells (SEQ ID NO: 345) (protein)
chain: MSLMVVSMVCVGFFLLQGAWPHEGVHRKPSLLAHPGPLVKSEETVILQCWSDVRFQHFLLHREGKFKDTLHLIGEHHDGVSKANFSIGPMMQDLAGTYRCYGSVTHSPYQLSAPSDPLDIVITGLYEKPSLSAQPGPTVLAGESVTLSCSSRSSYDMYHLSREGEAHERRFSAGPKVNGTFQADFPLGPATHGGTYRCFGSFRDSPYEWSNSSDPLLVSVTGNPSNSWPSPTEPSSETGNPRHLHVLIGTSVVIILFILLLFFLLHRWCCNKKNAVVMDQEPAGNRTVNREDSDEQDPQEVTYAQLNHCVFTQRKITRPSQRPKTPPTDIIVYTELPNAEP
B3: M16: human anti-mesothelin scFv, SEQ ID NO: 245 (protein)
scFv: EVQLVESGGGLVQPGRSLRLSCAASGFTFDDYAMHWVRQAPGKGLEWVSGISWNSGSTGYADSVKGRFTISRDNAKNSLYLQMNSLRAEDTALYYCAKDSSSWYGGGSAFDIWGQGTMVTVSSGGGGSGGGGSGGGGSSSELTQEPAVSVALGQTVRITCQGDSLRSYYASWYQQKPGQAPVLVIFGRSRRPSGIPDRFSGSSSGNTASLIITGAQAEDEADYYCNSRDNTANHYVFGTGTKLTVL
B4: M17: human anti-mesothelin scFv, SEQ ID NO: 246 (protein)
scFv: EVQLVESGGGLVQPGRSLRLSCAASGFTFDDYAMHWVRQAPGKGLEWVSGISWNSGSTGYADSVKGRFTISRDNAKNSLYLQMNSLRAEDTALYYCAKDSSSWYGGGSAFDIWGQGTMVTVSSGGGGSGGGGSGGGGSSSELTQDPAVSVALGQTVRITCQGDSLRSYYASWYQQKPGQAPVLVIYGKNNRPSGIPDRFSGSSSGNTASLTITGAQAEDEADYYCNSRGSSGNHYVFGTGTKVTVL

Tests used:
[1] = system: mesothelioma-derived cells expressing mesothelin (EM-meso cells); assay: EM-meso subcutaneous xenograft in NSG mice, tumor volume by caliper; format: in vivo, mouse; conditions: 4 million T cells i.v. day 20
Experimental: 20 days following tumor implantation, each animal was injected intravenously with 5×10^6 T cells that were stimulated with anti-CD3/anti-CD28 stimulator beads followed lentiviral transduction with a series of CD3ζ-based CAR with or without a costimulatory domain (SS1-ζ, SS1-BBζ and SS1-28ζ) or the mesothelin-specific KIR-based CARs, SS1-KIRS2 with DAP12. Mock transduced T cells (NTD) were used as a control. Tumor volume was measured by caliper at the indicated times (n=7 mice per group). […] The frequency of human CD45+ T cells was assessed at the end of the experiment by flow cytometry, and data are expressed as a percentage of total viable cells in the blood, spleen and tumor digest. […] The frequency of CD3+ human lymphocytes in tumors at day 30 (10 days following CAR T infusion) was assessed by flow cytometry. […] 4 million T cells expressing DAP12 and dsRed (DAP12), SS1-28z or SS1-KIRS2 and DAP12 (SS1-KIRS2) were injected intravenously on day 20, and tumor volume was assessed over time via caliper measurement. […] Antigen-specific cytotoxicity was assessed by coculturing with firefly luciferase expressing EM-meso cells or EMp cells (parental EM cells lacking mesothelin expression) at indicated E:T ratios for 18 hours. […]
Animal models can also be used to measure activity of a CAR-expressing cell. […] Animals are assessed for tumor progression at weekly intervals. […]

K562-meso-HLACw = assay: KIR2DL3 suppression of KIR-CAR cytotoxicity, 51Cr release against K562-meso-HLACw; format: cell-based, human; conditions: coexpressed with SS1-KIRS2/DAP12, HLA-Cw on the target cells
Experimental: K562 cells (K562) or K562 cells expressing mesothelin (K562-meso) were transduced with the HLA-Cw3 allele followed by fluorescence activated cell sorting to obtain K562 cells expressing HLA-Cw with (K562-meso-HLACw) or without (K562-HLACw) expression of mesothelin. HLA-Cw3 expression was assessed by flow cytometry using an APC-conjugated monoclonal antibody that recognizes HLA-A, B and C alleles (clone W6/32).
Primary human T cells were stimulated with CD3/28 microbeads followed by lentiviral transduction with SS1-KIRS2 and DAP12 (SS1-KIRS2) or mock transduced (NTD) in combination with wild-type KIR2DL3. The T cells were expanded until the end of log-phase growth. The surface expression of the mesothelin-specific CAR and KIR2DL3 was determined by staining with mesothelin-Fc followed by PE-conjugated goat-anti-human Fc and a monoclonal antibody to the KIR2DL3 ectodomain.
T cell that were generated and characterized as described in FIG. 21 were mixed with 51-Cr labeled target K562 cells that were generated and characterized as described in FIG. 22. Cytotoxicity was determined by measuring the fraction of ^51Cr released into the supernatant at 4 hours compared target cells without effector cells.

[2] = system: K562 cells engineered to express mesothelin; assay: Antigen-triggered cytokine secretion; format: cell-based, human; conditions: Example 14, T cells:targets 2:1, 24 hours, ELISA
Experimental: Cytokine production of the huMeso-KIRS2-expressing CAR cells was also assessed. Primary human T cells were simulated, transduced with the huMes-KIRS2 and expanded as previously described. Following expansion, the transduced T cells were mixed with K562 (mesothelin-negative cells, empty bars) or K562 cells engineered to express mesothelin (black bars) at a ratio of 2:1. Cytokine concentrations (IFNγ and IL-2) were determined in supernatants following 24 hours of stimulation by ELISA for the indicated cytokines.

| Molecule | IL-2 production [2] | also measured |
| --- | --- | --- |
| B1 | – | tumor eradication by DAP12-modified T cells [1]: require the mesothelin-specific KIR-based CAR for tumor eradication |
| B2 | – | effect on antigen specific cytotoxicity of co-expressed KIR CAR (K562-meso-HLACw): can suppress antigen specific cytotoxicity |
| B3 | produced IL-2 | – |
| B4 | produced IL-2 | – |
